Stoichiometry N and stoichiometry N (p300 per SRC3) data for one substance are collected here from PMC12069617.

Experiment [1] addresses progesterone receptor isoform A (PR-A), full-length, Strep II-tagged (human) (UniProt P06401). The experiment is described as follows: SEC-MALS.
Experiment [2] deals with steroid receptor coactivator 3 (SRC3), full-length, Strep II-tagged (human) (UniProt Q9Y6Q9). The experiment is described as follows: SEC-MALS. (In general: In gel filtration, larger molecules generally elute earlier.)
steroid receptor coactivator 3 (SRC3), full-length, Strep II-tagged (human), sequence (Q9Y6Q9 whole entry): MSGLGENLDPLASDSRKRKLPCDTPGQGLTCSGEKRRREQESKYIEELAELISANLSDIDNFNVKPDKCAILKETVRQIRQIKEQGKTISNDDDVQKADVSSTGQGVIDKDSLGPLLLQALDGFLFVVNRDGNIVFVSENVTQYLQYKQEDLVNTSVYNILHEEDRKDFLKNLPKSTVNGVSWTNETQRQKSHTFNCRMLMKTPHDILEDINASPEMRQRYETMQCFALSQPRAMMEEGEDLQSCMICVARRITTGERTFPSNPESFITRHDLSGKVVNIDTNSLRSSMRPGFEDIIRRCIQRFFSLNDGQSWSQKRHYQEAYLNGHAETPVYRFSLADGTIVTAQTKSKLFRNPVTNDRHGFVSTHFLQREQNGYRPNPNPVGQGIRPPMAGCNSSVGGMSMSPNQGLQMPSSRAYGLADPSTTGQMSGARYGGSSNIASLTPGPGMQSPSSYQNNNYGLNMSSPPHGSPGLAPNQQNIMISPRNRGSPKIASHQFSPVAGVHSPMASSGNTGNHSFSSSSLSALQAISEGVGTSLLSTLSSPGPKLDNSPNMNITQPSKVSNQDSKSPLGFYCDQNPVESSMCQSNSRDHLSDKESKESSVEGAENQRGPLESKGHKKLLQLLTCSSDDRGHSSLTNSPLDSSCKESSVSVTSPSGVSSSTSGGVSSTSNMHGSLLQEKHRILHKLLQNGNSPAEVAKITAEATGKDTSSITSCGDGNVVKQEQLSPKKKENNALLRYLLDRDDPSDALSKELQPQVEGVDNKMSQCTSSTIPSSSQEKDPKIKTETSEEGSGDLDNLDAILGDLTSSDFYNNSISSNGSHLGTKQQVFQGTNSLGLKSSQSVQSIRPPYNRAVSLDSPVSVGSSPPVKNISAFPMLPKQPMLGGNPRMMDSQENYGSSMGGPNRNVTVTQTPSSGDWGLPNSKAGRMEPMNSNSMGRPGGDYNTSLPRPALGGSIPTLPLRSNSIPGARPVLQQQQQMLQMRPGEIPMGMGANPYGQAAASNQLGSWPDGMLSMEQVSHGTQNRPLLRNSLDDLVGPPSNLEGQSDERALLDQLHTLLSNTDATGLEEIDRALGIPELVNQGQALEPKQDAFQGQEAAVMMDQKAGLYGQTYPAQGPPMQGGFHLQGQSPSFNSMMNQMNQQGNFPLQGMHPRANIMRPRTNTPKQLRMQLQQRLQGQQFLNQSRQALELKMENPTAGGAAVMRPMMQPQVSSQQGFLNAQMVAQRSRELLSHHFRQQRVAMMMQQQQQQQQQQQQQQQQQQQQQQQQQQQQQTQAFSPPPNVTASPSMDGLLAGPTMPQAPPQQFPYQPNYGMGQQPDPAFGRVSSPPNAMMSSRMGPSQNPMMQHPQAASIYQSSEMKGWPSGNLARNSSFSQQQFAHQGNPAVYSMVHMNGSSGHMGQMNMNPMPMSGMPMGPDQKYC

progesterone receptor isoform A (PR-A), full-length, Strep II-tagged (human), sequence (P06401 165-933): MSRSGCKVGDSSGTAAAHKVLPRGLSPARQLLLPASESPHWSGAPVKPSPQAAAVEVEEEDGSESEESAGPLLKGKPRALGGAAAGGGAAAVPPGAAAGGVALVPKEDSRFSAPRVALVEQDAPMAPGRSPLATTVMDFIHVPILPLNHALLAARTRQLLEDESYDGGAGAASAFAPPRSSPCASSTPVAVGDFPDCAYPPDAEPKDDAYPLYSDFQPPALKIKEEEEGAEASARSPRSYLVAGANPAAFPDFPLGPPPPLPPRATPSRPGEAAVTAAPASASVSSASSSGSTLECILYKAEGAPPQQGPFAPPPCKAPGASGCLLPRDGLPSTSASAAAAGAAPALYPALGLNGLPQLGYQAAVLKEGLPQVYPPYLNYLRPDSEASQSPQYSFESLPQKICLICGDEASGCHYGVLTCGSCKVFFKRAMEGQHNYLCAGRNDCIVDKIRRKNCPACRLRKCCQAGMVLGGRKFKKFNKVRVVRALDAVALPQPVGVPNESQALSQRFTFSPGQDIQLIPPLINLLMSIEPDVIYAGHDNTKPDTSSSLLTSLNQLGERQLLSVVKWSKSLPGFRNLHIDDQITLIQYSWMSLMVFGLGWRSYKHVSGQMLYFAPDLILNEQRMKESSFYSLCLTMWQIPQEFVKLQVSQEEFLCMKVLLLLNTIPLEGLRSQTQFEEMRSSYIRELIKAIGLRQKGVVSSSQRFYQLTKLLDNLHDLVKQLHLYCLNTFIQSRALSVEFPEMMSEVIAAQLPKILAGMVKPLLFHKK

The stoichiometry N is a count of units in the complex or per binding partner. Turning to “histone acetyltransferase p300, full-length, Strep II-tagged, Q09472 1-2414”, the stoichiometry N in experiment [1] is 0.5 p300 per PR. Further, the stoichiometry N (p300 per SRC3) in experiment [2] was found to be 1.
